Paper PMC3062965 (Apoptosis : an international journal on programmed cell …, 2010)
“And” between values parts separate entries of the source, which are not always exact repeats. Equal entries are not always repeated.

Biological target: full-length RAIDD (1-199) (human, UniProt P78560 1-199)
Assay: SEC-MALS

full-length RAIDD (1-199), sequence (P78560 whole entry): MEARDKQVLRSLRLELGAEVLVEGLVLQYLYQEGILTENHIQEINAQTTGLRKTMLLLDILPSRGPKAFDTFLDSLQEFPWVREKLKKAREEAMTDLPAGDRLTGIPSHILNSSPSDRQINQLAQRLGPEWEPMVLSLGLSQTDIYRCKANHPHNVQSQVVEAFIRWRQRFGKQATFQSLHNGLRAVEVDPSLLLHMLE

B1: PIDD DD (777-883) (domain or fragment, human, UniProt Q9HB75 777-883, looked up)
chain: LNLGDAETGFLTQSNLLSVAGRLGLDWPAVALHLGVSYREVQRIRHEFRDDLDEQIRHMLFSWAERQAGQPGAVGLLVQALEQSDRQDVAEEVRAVLELGRRKYQDS
stoichiometry N: 7 RAIDD per complex and 5 PIDD DD per complex
